Reference: patent publication US20250242041A1 (Seagen, published 2025)

Legend:
[1] = molecular target: T1, human αvβ6 on 293F:huβ6 cells (human, UniProt P06756 31-1048; P18564 22-788); test: competition binding on 293F cells; 2nM m2A2-AF647 competitor
T1 chain 1: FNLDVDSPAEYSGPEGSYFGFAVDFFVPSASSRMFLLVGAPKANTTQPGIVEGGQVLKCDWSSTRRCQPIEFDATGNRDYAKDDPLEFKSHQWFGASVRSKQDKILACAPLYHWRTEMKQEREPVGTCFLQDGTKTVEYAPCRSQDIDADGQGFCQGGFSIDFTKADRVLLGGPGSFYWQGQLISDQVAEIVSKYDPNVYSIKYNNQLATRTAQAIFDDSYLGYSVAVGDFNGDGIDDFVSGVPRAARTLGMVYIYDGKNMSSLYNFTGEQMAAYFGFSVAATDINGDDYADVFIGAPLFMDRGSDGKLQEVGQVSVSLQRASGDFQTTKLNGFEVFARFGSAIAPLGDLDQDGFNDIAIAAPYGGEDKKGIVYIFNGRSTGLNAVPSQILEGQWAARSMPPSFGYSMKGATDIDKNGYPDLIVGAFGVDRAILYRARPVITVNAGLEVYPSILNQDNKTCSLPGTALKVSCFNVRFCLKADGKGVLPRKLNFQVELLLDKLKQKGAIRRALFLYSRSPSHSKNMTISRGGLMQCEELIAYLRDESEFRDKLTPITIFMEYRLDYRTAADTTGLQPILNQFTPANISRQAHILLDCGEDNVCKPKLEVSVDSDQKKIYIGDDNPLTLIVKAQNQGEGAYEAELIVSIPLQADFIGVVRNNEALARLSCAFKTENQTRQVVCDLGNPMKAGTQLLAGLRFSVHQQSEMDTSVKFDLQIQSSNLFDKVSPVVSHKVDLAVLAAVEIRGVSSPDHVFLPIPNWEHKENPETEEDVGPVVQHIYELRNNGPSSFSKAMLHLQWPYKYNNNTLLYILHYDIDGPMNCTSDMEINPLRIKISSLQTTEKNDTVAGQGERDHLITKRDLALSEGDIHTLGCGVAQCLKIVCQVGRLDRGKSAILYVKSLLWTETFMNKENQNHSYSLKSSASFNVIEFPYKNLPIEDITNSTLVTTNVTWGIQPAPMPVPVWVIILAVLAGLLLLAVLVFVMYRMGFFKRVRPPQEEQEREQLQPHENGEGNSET
T1 chain 2: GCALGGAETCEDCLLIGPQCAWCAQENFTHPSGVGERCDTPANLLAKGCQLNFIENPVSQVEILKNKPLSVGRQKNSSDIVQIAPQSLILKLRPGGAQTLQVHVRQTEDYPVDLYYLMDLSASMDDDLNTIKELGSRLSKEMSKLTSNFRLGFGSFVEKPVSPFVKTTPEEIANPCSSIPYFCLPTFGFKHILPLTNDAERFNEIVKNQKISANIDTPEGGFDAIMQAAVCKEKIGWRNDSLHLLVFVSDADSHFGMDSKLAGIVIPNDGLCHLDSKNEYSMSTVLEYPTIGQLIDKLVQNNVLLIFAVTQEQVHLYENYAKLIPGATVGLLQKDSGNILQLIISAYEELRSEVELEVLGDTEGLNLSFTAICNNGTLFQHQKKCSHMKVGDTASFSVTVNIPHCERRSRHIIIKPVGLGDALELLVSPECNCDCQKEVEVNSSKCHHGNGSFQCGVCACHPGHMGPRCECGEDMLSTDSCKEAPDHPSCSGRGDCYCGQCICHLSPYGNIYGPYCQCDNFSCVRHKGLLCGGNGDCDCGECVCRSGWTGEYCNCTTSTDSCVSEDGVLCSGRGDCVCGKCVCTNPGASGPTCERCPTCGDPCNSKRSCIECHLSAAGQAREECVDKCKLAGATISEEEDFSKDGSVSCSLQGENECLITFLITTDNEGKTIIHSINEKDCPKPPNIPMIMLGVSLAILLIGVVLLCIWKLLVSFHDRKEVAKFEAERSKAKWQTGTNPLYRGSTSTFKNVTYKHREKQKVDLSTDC

[2] = molecular target: T2, recombinant human αvβ6 (R&D Systems) (human, UniProt P06756 31-992; P18564 22-707); test: ELISA on coated recombinant integrin
T2 construct: Bought from R&D Systems, coated on the ELISA plate
Description: (§1) 96-well Maxisorb plates (Nunc) were coated overnight at 4° C. with 1 ug/ml of recombinant human αvβ1, αvβ3, αvβ5, αvβ6 and αvβ8 (R&D Systems, MN) diluted in 50 mM carbonate buffer (Sigma, MO). Plates were washed with PBS+0.05% Tween 20 (PBS-T). Wash buffer was removed and plates were blocked for 2 hours at room temperature in TBS blocking buffer (TBS, 0.05% Tween 20, 1% BSA). Plates were washed and then incubated for 2 hours with humanized 2A2 antibody diluted in TBS binding buffer (TBS, 0.05% Tween 20, 1% BSA, 1 mM MnCl₂) at concentrations that ranged from 1 pM-67 nM (10 ug/ml). Plates were washed, incubated for 1 hour with 1:5000 dilution of anti-human Fc-HRP (Jackson ImmunoResearch, PA), washed, and then incubated with TMB substrate for 5 minutes. The reaction was stopped with 1 M HCl. Absorbance at 450 nm was read using a Fusion HT plate reader (Perkin Elmer, Waltham, MA).

recombinant human αvβ5 = molecular target: T3, recombinant human αvβ5 (human, UniProt P06756 31-992; P18084 24-719); test: ELISA on coated recombinant integrin
T3 construct: Bought from R&D Systems
Description: as §1

recombinant human αvβ3 = molecular target: T4, recombinant human αvβ3 (human, UniProt P06756 31-992; P05106 27-718); test: ELISA on coated recombinant integrin
T4 construct: Bought from R&D Systems
Description: as §1

recombinant human αvβ1 = molecular target: T5, recombinant human αvβ1 (human, UniProt P06756 31-992; P05556 21-728); test: ELISA on coated recombinant integrin
T5 construct: Bought from R&D Systems
Description: as §1

recombinant human αvβ8 = molecular target: T6, recombinant human αvβ8 (human, UniProt P06756 31-992; P26012 43-684); test: ELISA on coated recombinant integrin
T6 construct: Bought from R&D Systems
Description: as §1

T5 sequence (P05556 21-728 limits assumed, one chain of several): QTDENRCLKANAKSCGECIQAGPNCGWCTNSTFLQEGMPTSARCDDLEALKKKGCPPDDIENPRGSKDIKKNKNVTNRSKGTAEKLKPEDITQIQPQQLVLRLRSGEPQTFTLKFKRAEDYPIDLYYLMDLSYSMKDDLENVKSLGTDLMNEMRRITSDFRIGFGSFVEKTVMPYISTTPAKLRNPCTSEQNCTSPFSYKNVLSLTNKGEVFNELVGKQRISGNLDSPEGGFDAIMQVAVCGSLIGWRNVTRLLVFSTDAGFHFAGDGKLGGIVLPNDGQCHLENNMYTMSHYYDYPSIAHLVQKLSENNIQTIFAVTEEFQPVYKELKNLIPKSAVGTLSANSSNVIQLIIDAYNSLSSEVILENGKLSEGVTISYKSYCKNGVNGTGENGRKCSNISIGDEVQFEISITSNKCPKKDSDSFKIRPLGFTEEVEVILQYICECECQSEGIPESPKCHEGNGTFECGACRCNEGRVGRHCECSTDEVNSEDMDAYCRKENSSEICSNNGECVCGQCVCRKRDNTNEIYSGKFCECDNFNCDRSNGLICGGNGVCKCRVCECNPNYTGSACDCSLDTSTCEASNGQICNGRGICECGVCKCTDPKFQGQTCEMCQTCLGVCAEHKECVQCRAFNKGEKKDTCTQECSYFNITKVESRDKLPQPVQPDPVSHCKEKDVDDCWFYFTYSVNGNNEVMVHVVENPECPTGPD
T6 sequence (P26012 43-684 limits assumed, one chain of several): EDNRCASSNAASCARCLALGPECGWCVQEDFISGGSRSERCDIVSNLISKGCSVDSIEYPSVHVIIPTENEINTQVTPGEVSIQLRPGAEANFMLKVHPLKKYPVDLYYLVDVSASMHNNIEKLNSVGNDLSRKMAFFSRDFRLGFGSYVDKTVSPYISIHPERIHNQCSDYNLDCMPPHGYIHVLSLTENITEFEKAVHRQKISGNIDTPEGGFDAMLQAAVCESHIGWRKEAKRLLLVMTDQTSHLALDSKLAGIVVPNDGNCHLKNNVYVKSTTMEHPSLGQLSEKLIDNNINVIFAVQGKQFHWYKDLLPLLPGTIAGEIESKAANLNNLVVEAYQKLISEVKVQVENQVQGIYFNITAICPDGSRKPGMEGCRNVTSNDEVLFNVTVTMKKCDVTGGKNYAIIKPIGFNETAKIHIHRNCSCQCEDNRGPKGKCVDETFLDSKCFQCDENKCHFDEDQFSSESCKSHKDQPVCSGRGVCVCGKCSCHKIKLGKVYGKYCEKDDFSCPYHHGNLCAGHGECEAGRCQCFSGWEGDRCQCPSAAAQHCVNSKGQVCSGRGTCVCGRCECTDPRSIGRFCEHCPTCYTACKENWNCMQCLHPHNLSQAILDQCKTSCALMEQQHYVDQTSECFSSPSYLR
T4 sequence (P05106 27-718 limits assumed, one chain of several): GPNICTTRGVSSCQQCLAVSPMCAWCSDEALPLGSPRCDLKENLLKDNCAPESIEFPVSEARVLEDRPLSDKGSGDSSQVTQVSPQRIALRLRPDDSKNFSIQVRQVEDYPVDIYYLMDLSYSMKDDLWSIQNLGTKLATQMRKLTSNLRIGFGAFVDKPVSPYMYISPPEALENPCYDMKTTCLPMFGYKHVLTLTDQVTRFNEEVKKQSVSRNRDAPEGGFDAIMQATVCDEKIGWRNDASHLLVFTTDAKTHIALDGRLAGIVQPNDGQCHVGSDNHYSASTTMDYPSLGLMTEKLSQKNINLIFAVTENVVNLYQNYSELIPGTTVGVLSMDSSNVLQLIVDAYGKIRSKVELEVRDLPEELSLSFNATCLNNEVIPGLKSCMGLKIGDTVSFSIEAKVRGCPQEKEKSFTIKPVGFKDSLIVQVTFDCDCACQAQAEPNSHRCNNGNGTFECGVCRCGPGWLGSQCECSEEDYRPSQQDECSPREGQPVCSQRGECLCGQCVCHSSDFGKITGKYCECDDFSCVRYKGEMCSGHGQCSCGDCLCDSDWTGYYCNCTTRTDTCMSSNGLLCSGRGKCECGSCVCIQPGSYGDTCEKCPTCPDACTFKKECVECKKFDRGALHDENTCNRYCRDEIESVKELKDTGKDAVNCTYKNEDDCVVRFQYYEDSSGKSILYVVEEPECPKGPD
T3 sequence (P18084 24-719 limits assumed, one chain of several): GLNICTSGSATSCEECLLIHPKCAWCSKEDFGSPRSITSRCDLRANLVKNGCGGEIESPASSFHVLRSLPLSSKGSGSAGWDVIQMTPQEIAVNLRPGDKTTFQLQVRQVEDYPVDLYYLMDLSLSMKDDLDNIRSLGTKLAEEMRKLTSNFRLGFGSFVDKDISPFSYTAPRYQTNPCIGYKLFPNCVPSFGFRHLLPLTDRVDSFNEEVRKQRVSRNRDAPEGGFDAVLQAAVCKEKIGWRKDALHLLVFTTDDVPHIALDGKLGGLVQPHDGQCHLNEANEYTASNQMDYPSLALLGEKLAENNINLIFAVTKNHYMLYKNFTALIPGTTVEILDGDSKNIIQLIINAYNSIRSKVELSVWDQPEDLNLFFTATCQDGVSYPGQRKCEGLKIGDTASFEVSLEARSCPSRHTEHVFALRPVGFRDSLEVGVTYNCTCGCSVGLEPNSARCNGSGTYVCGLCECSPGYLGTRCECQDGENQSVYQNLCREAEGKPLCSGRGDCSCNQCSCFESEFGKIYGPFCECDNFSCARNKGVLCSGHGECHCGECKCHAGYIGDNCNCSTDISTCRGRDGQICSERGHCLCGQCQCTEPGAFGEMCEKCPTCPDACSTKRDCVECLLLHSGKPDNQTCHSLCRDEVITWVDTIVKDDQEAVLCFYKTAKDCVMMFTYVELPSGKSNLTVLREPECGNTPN

- EC50 [1]: 1 nM
- binding result [2]: binds
B1: h2A2 HCLG humanized antibody (antibody, human IgG1, kappa, V domains shown)
VH: QFQLVQSGAEVKKPGASVKVSCKASGYSFTDYNVNWVRQAPGQGLEWIGVINPKYGTTRYNQKFKGRATLTVDKSTSTAYMELSSLRSEDTAVYYCTRGLNAWDYWGQGTLVTVSS
VL: DIQMTQSPSSLSASVGDRVTITCGASENIYGALNWYQQKPGKAPKLLIYGATNLEDGVPSRFSGSGSGRDYTFTISSLQPEDIATYYCQNVLTTPYTFGQGTKLEIKR
notes: Labelled with AlexaFluor-647 in the saturation assay; also called humanized 2A2 HCLG
- binding result (recombinant human αvβ5): no binding (tested: 1 pM-67 nM (10 ug/ml))
- binding result (recombinant human αvβ3): no binding (tested: 1 pM-67 nM (10 ug/ml))
- binding result (recombinant human αvβ1): no binding (tested: 1 pM-67 nM (10 ug/ml))
- binding result (recombinant human αvβ8): no binding (tested: 1 pM-67 nM (10 ug/ml))
